This note sets out measurements from patent US20170101480A1.

The assay has as its target ErbB3 (human) (UniProt P21860). Nature of the assay: cell-based or functional assay.

B1: Seribantumab (antibody, INN chains, looked up, V domains shown)
VH: EVQLLESGGGLVQPGGSLRLSCAASGFTFSHYVMAWVRQAPGKGLEWVSSISSSGGWTLYADSVKGRFTISRDNSKNTLYLQMNSLRAEDTAVYYCTRGLKMATIFDYWGQGTLVTVSS
VL: QSALTQPASVSGSPGQSITISCTGTSSDVGSYNVVSWYQQHPGKAPKLIIYEVSQRPSGVSNRFSGSKSGNTASLTISGLQTEDEADYYCCSYAGSSIFVIFGGGTKVTVLG
In the case of B1, the inhibition of HRG-induced cell growth (CTG assay), OVCAR8-GFP cells amounted to 49%; the inhibition of HRG-induced cell growth (CTG assay), OVCAR-8-JMaCYT1 cells (ErbB4 overexpressing) is less than 20%; the inhibition of HRG-induced cell growth (CTG assay), OVCAR-8-JMaCYT2 cells (ErbB4 overexpressing) is less than 20%; the inhibition of HRG-induced cell growth (CTG assay), OVCAR-8 high ErbB4 expression clone #5 worked out at 8%. Moreover, the inhibition of HRG-induced cell growth (CTG assay), OVCAR-8 low ErbB4 expression clone #4 came to 45%; the inhibition of HRG-induced cell growth (CTG assay), OVCAR-8 medium ErbB4 expression clone #9 is 25%; the inhibition of HRG-induced cell proliferation (CTG assay), OVCAR-8 GFP-expressing control cells, 1.25 uM seribantumab worked out at 40.8%; the inhibition of HRG-induced cell proliferation (CTG assay), OVCAR-8 parental cells, 1.25 uM seribantumab was determined as 53.7%. Further, the inhibition of HRG-stimulated cell proliferation (CTG assay), A549 cells, 1.25 uM seribantumab, 10 nM HRG was found to be 70% and the inhibition of HRG-stimulated cell proliferation (CTG assay), OVCAR-8 cells, 1.25 uM seribantumab, 10 nM HRG was 41%.
